Legend:
[1] = target: T1, recombinant VEGFR-2 protein (water soluble extracellular site of human VEGFR-2 with Fc of human IgG1 connected thereto, R&D Systems) (human), P35968; test: competitive ELISA; peptide titrated with 1 nM VEGFR-2 on coated VEGF 165
T1 chain: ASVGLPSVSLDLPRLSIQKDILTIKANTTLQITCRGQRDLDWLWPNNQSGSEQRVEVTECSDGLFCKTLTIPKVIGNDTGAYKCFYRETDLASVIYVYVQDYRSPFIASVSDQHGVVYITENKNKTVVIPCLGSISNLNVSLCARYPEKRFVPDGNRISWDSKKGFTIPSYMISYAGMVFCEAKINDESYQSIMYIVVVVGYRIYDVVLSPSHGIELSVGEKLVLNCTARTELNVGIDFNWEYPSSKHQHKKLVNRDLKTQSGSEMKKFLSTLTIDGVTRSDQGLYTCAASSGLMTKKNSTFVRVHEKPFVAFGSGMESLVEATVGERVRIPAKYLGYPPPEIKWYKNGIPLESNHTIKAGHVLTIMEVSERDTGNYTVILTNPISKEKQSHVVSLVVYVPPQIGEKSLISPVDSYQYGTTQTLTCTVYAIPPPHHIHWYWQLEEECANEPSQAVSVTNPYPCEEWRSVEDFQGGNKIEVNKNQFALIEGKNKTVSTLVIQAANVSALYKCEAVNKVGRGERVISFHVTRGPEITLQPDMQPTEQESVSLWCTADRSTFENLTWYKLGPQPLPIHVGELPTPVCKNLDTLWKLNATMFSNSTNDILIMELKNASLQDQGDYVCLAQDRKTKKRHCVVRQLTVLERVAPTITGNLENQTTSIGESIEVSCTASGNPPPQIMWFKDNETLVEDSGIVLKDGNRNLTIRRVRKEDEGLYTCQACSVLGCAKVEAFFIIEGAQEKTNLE

[2] = target: T2, recombinant hAng-2 (recombinant protein with His tag attached to human Ang-2; R&D Systems) (human, UniProt O15123 19-496); test: competitive ELISA; synergibody titrated with 1 nM hAng-2 (His) on coated hTie2-Fc
T2 construct: also called angiopoietin-2; ANGPT2
T2 sequence (looked up): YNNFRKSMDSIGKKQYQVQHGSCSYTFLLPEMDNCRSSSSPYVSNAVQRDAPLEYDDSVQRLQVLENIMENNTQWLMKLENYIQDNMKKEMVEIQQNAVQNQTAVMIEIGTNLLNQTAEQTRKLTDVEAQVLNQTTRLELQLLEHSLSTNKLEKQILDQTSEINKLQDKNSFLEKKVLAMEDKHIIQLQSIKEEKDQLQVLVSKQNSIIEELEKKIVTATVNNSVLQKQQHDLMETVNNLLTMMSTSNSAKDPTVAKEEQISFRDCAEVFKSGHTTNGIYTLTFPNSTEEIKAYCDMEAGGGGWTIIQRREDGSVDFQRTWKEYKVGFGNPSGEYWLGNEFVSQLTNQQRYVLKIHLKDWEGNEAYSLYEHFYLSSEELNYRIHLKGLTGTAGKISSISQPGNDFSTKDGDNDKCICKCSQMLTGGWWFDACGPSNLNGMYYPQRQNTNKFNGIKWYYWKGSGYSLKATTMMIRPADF
Procedure: (§1) A competitive ELISA is performed to assess the molecular interaction of the binders. A 96-well MaxiSorp™ flat-bottom plate (Nunc) is coated with hTie2-Fc (R&D Systems), which is a fused protein including the water-soluble extracellular portion of human Tie-2 and Fc of human IgG₁ dissolved in DMEM culture solution containing 50 μg/ml bovine serum albumin (BSA). The concentration of hTie2-Fc used as a coating material is equivalent to 75% of its maximum binding concentration with 1 nM of recombinant hAng-2 (recombinant protein with His tag attached to human Ang-2; R&D Systems). Then the plate is washed five times with Phosphate Buffer Saline (PBS) containing 0.1% Tween-20 and blocked at room temperature for two hours with PBS containing 5% BSA. Each anti-Ang-2 antibodies are diluted from 100 nM by one-fourth each time with PBS containing 1% BSA and 1 nM hAng-2 and adjusted to 6.1 pM for Ang-2:Tie-2 neutralization ELISA. 100 μl of antibody/hAng-2 solutions are placed in each corresponding well and left to react at room temperature for two hours. Then the wells are washed five times with PBS containing 0.1% Tween-20, and the anti-His antibodies (GE Healthcare) are diluted to about 1:3,000 with PBS containing 1% BSA and left to react at room temperature for one hour. Afterwards, 100 μl of goat anti-mouse-IgG-HRP (Pierce) diluted with PBS containing 1% BSA to about 1:10,000 is added to each well of the plate, left to react at room temperature for one hour, and washed with PBS containing 0.1% Tween-20 five times. Lastly, 100 μl of TMB substrate (SIGMA) is added to each well of the plate to induce color reaction, and the reaction is stopped by adding 50 μl of 5N H₂SO₄ solution. The OD₄₅₀ value is read on a plate reader (Molecular Devices).
The method described in Example 1, Section 3 above is used, except that, in the present example, each fused protein synergibodies are diluted from 100 nM to one-fourth each time with PBS containing 1% BSA and 1 nM hAng-2 and adjusted to 6.1 pM for Ang-2:Tie-2 neutralization ELISA.

[3] = target: T3, recombinant VEGFR-2 protein (water soluble extracellular site of human VEGFR-2 with Fc of human IgG1 … (human, UniProt P35968 20-764)); test: competitive ELISA; synergibody titrated with 1 nM VEGFR-2 on coated VEGF 165
T3 construct: extracellular domain; Bought; not shown: Fc of human IgG1
Procedure: Competitive ELISA is performed using the peptides synthesized above in Section 6A in order to assess the molecular interaction of the binders. […] Then the plate is washed five times with PBS containing 0.1% Tween-20, and blocked at room temperature for two hours with PBS containing 5% BSA. For VEGF:VEGFR-2 neutralization ELISA, each of the peptides synthesized in Section 6A above are diluted to one-fourth each time from 100 nM with PBS containing 1 nM VEGFR-2 and 1% BSA, and adjusted to 6.1 pM. 100 μl of peptide/VEGFR-2 solution is added to each well and the plate is left to react at room temperature for two hours. Subsequently, it is washed five times with PBS containing 0.1% Tween-20, mouse anti-VEGFR-2 antibodies (R&D Systems) is diluted to about 1:3,000 with PBS containing 1% BSA, and left to react at room temperature for one hour. Then 100 μl of goat anti-mouse-IgG-HRP (Pierce) diluted to about 1:10,000 with PBS containing 1% BSA is added to each well of the plate, left to react at room temperature for one hour, and washed five times with PBS containing 0.1% Tween-20. Lastly, 100 μl of TMB substrate (SIGMA) is added to each well of the plate to induce color reaction. The reaction is stopped by adding 50 μl of 5N H₂SO₄ solution, and the OD₄₅₀ value is read on a plate reader (Molecular Devices). Through the foregoing, the IC₅₀ value for the VEGF:VEGFR-2 binding capacity is obtained.
The method in Example 2, Section 6B above is used, except that, in the present example, each fused protein synergibodies are diluted from 100 nM to one-fourth each time with PBS containing 1% BSA and 1nM VEGFR-2 and adjusted to 6.1 pM for VEGF:VEGF-2 neutralization ELISA.

[4] = target: T2, recombinant hAng-2 (recombinant protein …); test: competitive ELISA; antibody titrated with 1 nM hAng-2 (His) on coated hTie2-Fc
Procedure: as §1

[5] = target: T2, recombinant hAng-2 (recombinant protein …); test: SPR, BIAcore T100; hAng-2 amine-coupled on CM5, antibody 100 to 0.78125 nM
Procedure: (§2) The SPR method using BIAcore T100 (GE Healthcare) is used to accurately measure the affinity to the Ang-2 antigens. 20 μg/ml recombinant hAng-2 (R&D Systems) is fixed on a sensor chip CM5 (GE Healthcare) using pH4.5 acetate solution and amine coupling kit (GE Healthcare). The antibodies obtained in Section 2 above are diluted to eight different concentrations down to 0.78125 nM by diluting to ½ each time starting from 100 nM. Then the antigen/antibody affinity is measured by causing the antigens to repeatedly bind and disassociate with the antibodies fixed on the sensor chip (using pH2.2 glycine-HCl solution).

recombinant hAng-2 = target: T4, recombinant hAng-2 (Homo sapiens, UniProt O15123); test: Affinity to Ang-2 antigen by surface plasmon resonance (BIAcore T100); type: binding; conditions: SPR, hAng-2 on CM5 chip
T4 construct: His tag; purchased R&D Systems
T4 sequence (O15123 19-496): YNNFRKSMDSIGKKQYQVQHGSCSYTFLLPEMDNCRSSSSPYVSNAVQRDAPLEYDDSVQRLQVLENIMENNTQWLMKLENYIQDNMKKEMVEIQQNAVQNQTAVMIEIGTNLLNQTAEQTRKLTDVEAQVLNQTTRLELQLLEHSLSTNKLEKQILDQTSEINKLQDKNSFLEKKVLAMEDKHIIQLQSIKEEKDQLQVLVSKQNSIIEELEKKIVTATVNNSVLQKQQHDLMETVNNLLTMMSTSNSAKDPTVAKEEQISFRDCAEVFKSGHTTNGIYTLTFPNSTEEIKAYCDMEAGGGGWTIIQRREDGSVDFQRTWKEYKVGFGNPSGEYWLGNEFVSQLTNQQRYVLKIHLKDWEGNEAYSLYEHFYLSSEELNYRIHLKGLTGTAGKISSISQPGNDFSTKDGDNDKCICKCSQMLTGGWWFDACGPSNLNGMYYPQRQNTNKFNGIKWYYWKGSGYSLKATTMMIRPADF
Procedure: as §2

Molecule: EAGKETCGYEWQYCPRP (modifications not checked) [DTN8VEGFR-2-2]
- IC50 [1]: 49.5 nM

B1: Syn-Ang-VEGFR-18 (other)
heavy (part 1 of 2): QVQLQQSGAELARPGASVKLSCKASGYTFTDYYINWAKQRTGQGLEWIGEIYPGSGDTYYNEKFKGKATLTADKSSSTAYMQLSSLTSEDSAVYFCARYGYKGVYFDYWGQSTTLTVSS
heavy (part 2 of 2): EAGAYWCKAWGLSPCLVT
light: ENVLTQSPAIMAASLGQKVTMTCSASSSVSSSYLHWYQQKSGASPKPLIHRTSNLASGVPARFSGSGSGTSYSLTISSVEAEDDATYYCQQWSGYPFTFGAGTKLELK
notes: Chimeric (human IgG1) SAITAng-2-4 with the peptide at the C-terminus of the heavy chain; also called SAITAng-2-4 x DTN9VEGFR-2-3; not shown: human IgG1 heavy chain constant region with Fc region, from the vector; human light chain constant region, printed as 'constant region of human IgG1'
- IC50 [2]: 1.39 nM
- IC50 [3]: 1.65 nM

B2: Syn-Ang-VEGFR-19 (other)
heavy (part 1 of 2): QVQLQQSGAELARPGASVKLSCKASGYTFTDYYINWAKQRTGQGLEWIGEIYPGSGDTYYNEKFKGKATLTADKSSSTAYMQLSSLTSEDSAVYFCARYGYKGVYFDYWGQSTTLTVSS
heavy (part 2 of 2): TGSGRMCDGSGPPTNCWFT
light: ENVLTQSPAIMAASLGQKVTMTCSASSSVSSSYLHWYQQKSGASPKPLIHRTSNLASGVPARFSGSGSGTSYSLTISSVEAEDDATYYCQQWSGYPFTFGAGTKLELK
notes: Chimeric (human IgG1) SAITAng-2-4 with the peptide at the C-terminus of the heavy chain; also called SAITAng-2-4 x DTN10VEGFR-2-4; not shown: human IgG1 heavy chain constant region with Fc region, from the vector; human light chain constant region, printed as 'constant region of human IgG1'
- IC50 [2]: 1.28 nM
- IC50 [3]: 1.31 nM

B3: Syn-Ang-VEGFR-20 (other)
heavy (part 1 of 2): QVQLQQSGAELARPGASVKLSCKASGYTFTDYYINWAKQRTGQGLEWIGEIYPGSGDTYYNEKFKGKATLTADKSSSTAYMQLSSLTSEDSAVYFCARYGYKGVYFDYWGQSTTLTVSS
heavy (part 2 of 2): PGSQGYCHLNMRYQWICDSE
light: ENVLTQSPAIMAASLGQKVTMTCSASSSVSSSYLHWYQQKSGASPKPLIHRTSNLASGVPARFSGSGSGTSYSLTISSVEAEDDATYYCQQWSGYPFTFGAGTKLELK
notes: Chimeric (human IgG1) SAITAng-2-4 with the peptide at the C-terminus of the heavy chain; also called SAITAng-2-4 x DTN11VEGFR-2-5; not shown: human IgG1 heavy chain constant region with Fc region, from the vector; human light chain constant region, printed as 'constant region of human IgG1'
- IC50 [2]: 1.35 nM
- IC50 [3]: 1.38 nM

Molecule: PGSQGYCHLNMRYQWICDSE (modifications not checked) [DTN11VEGFR-2-5]
- IC50 [1]: 50.7 nM

Molecule: EAGAYWCKAWGLSPCLVT (modifications not checked) [DTN9VEGFR-2-3]
- IC50 [1]: 61.9 nM

Molecule: TGSDDLCYTFPCMHY (modifications not checked) [DTN6VEGFR-2-1]
- IC50 [1]: 56.7 nM

B4: SAITAng-2-2 (antibody, V domains shown)
VH: QVQLQQSGPELVKPGASVKMSCKASGYTFTDYVISWVKQRTGQGLEWIGEIYPGSGSTYYNEKFKGKASLTADKSSNTAYMQLSSLTSADSAVYFCVRSRGDYYAMDYWGQGTSVTVSS
VL: DIQMTQSPSSLSASLGGKVTITCKASQDINNYITWYQHKPGKGPRLLIHYTSTLQPGIPSRFSGSGSGRDYSFSISNLEPEDIATYYCLQYDNLLTFGGGTKLEIK
notes: Mouse monoclonal anti-Ang-2 antibody purified from hybridoma culture
- IC50 [4]: 1.86 nM
- Kd [5]: 1.1 nM
- koff [5]: 0.000477 s⁻¹
- kon [5]: 433000 M⁻¹ s⁻¹
- Off Rate (recombinant hAng-2): 0.0004769 s⁻¹
- On rate (recombinant hAng-2): 433200 M⁻¹ s⁻¹

B5: SAITAng-2-3 (antibody, V domains shown)
VH: DVQLVESGGGLVQPGGSRKLSCAASGFTFSSFGMHWVRQAPEKGLEWVAYISSDSSTIYYADTVKGRFTISRDNPKNTLFLQMTSLRSEDTAMYYCAREGGYDDYYAMDYWGQGTSVTVSS
VL: DIQMTQSPASQSASLGESVTITCLASQTIGTWLAWYQQKPGKSPQLLIYAATSLADGVPSRFSGSGSGTKFSFKISSLQAEDFVSYYCQQLYSIPLTFGGGTKLEIK
notes: as for B4
- IC50 [4]: 0.822 nM
- Kd [5]: 0.603 nM
- koff [5]: 0.000302 s⁻¹
- kon [5]: 501000 M⁻¹ s⁻¹
- Off Rate (recombinant hAng-2): 0.0003023 s⁻¹
- On rate (recombinant hAng-2): 501200 M⁻¹ s⁻¹

Molecule: TGSGRMCDGSGPPTNCWFT (modifications not checked) [DTN10VEGFR-2-4]
- IC50 [1]: 46.9 nM

Reference: patent publication US20110076723A1, “ANTIBODY-PEPTIDE FUSED SYNERGIBODY” (SAMSUNG ELECTRONICS CO., LTD., priority 2008, published 2011)
